According to patent US20250269018A1, “COMBINED CANCER THERAPY WITH AN EPITHELIAL CELL ADHESION MOLECULE (EPCAM) INHIBITOR AND A HEPATOCYTE GROWTH FACTOR RECEPTOR (HGFR) INHIBITOR” (ACADEMIA SINICA, priority 2021, published 2025):

T1: EpCAM wild-type (expressed in HEK293T cells, FIG. 8D-8G) (human, UniProt P16422 24-314)
T1 sequence: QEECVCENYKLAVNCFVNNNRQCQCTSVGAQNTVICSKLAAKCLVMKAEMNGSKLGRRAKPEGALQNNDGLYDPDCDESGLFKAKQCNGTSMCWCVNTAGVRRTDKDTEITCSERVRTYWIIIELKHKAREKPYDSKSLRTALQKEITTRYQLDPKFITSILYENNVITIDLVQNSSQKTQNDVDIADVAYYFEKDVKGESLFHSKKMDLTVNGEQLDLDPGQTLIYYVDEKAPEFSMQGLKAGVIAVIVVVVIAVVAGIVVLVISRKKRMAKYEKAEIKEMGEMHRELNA

T2: EpEX-His (Homo sapiens, UniProt P16422)
T2 construct: the soluble extracellular domain of EpCAM (EpEX); His; made in house; host or cells: Expi293
T2 sequence (P16422 24-265 limits assumed): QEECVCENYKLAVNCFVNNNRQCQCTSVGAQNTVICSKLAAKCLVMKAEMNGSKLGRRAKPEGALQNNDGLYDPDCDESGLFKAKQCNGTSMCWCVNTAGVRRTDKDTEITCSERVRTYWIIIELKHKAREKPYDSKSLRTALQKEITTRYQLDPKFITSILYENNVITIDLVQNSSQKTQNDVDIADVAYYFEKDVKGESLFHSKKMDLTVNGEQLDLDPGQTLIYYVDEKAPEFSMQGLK

B1: endogenous EpCAM (HCT116 and HT29 cells) (other)
chain: T1 sequence
notes: Endogenous protein of human colon cancer cell lines, immunoprecipitated from lysates; also called epithelial cell adhesion molecule
B2: EpEX-Fc (Fc fusion)
chain: T2 sequence (P16422 24-265 limits assumed)
notes: also called recombinant EpEX-Fc; not shown: Fc
B3: EpEX-His (extracellular domain of EpCAM, His-tagged) (ligand)
chain: T2 sequence (P16422 24-265 limits assumed)
notes: It was made in Expi293 cells and purified on Ni-NTA; also called soluble EpEX; secreted EpEX; not shown: His tag
B4: F(ab′)2 of EpAb2-6 (antibody, V domains shown)
VH: VKLQESGPELKKPGETVKISCKASGYTFTDYSMHWVKQAPGKGLKWMGWINTETGEPTYADDFKGRFAFSLETSASTAYLQINNLKNEDTATYFCARTAVYWGQGTTVTVSS
VL: DIQMTQSPSSLSASLGERVSLTCRASQEISVSLSWLQQEPDGTIKRLIYATSTLDSGVPKRFSGSRSGSDYSLTISSLESEDFVDYYCLQYASYPWTFGGGTKLEIKR
notes: F(ab′)2 fragment of mouse EpAb2-6; also called divalent antibody fragments F(ab′)2 of EpAb2-6
B5: EpAb2-6 (mouse monoclonal IgG) (antibody, V domains shown)
VH: B4 VH
VL: B4 VL
notes: Mouse hybridoma IgG; also called mouse EpAb2-6; mEpAb2-6
B6: EpCAM-V5 (full length, expressed in HEK293T cells) (other)
chain: T1 sequence
notes: also called exogenous EpCAM; not shown: V5 tag
B7: EpCAMΔEGFI+II-V5 (other)
chain: QEESKLAAKSERVRTYWIIIELKHKAREKPYDSKSLRTALQKEITTRYQLDPKFITSILYENNVITIDLVQNSSQKTQNDVDIADVAYYFEKDVKGESLFHSKKMDLTVNGEQLDLDPGQTLIYYVDEKAPEFSMQGLKAGVIAVIVVVVIAVVAGIVVLVISRKKRMAKYEKAEIKEMGEMHRELNA
notes: also called both domain-deleted mutants; not shown: V5 tag
B8: EpEXΔEGFI+II-His (ligand)
chain: QEESKLAAKSERVRTYWIIIELKHKAREKPYDSKSLRTALQKEITTRYQLDPKFITSILYENNVITIDLVQNSSQKTQNDVDIADVAYYFEKDVKGESLFHSKKMDLTVNGEQLDLDPGQTLIYYVDEKAPEFSMQGLK
notes: EpEX lacking aa 27-59 and 66-135; also called EGF like-domain deletion mutant EpEX-His; soluble EpEX mutant protein; not shown: His tag
B9: EpEXΔEGFI+II-Fc (Fc fusion)
chain: B8 chain
notes: EpEX lacking aa 27-59 and 66-135, coated on ELISA plates at 1 µg/ml; also called EpEXΔEGFI+II mutant protein; EGF like-domain deletion mutant-Fc; not shown: Fc
B10: F(ab′)2 of EpAb2-6: divalent antibody fragments F(ab′)2 of EpAb2-6 (antibody, V domains shown)
VH: B4 VH
VL: DIQMTQSPSSLSASLGERVSLTCRASQEISVSLSWLQQEPDGTIKRLIYATSTLDSGVPKRFSGSRSGSDYSLTISSLESEDFVDYYCLQYASYPWTFGGGTKLEIKRADAAPTVS

Tests used:
[1] = biological target: T3, endogenous HGFR (HCT116 and HT29 cells) (human, UniProt P08581 25-1390); test: co-IP of endogenous proteins after DTSSP cross-linking, HCT116 and HT29 cells (FIG. 1A)
T3 construct: whole, on cells; also called c-MET; hepatocyte growth factor receptor
T3 sequence (P08581 25-1390): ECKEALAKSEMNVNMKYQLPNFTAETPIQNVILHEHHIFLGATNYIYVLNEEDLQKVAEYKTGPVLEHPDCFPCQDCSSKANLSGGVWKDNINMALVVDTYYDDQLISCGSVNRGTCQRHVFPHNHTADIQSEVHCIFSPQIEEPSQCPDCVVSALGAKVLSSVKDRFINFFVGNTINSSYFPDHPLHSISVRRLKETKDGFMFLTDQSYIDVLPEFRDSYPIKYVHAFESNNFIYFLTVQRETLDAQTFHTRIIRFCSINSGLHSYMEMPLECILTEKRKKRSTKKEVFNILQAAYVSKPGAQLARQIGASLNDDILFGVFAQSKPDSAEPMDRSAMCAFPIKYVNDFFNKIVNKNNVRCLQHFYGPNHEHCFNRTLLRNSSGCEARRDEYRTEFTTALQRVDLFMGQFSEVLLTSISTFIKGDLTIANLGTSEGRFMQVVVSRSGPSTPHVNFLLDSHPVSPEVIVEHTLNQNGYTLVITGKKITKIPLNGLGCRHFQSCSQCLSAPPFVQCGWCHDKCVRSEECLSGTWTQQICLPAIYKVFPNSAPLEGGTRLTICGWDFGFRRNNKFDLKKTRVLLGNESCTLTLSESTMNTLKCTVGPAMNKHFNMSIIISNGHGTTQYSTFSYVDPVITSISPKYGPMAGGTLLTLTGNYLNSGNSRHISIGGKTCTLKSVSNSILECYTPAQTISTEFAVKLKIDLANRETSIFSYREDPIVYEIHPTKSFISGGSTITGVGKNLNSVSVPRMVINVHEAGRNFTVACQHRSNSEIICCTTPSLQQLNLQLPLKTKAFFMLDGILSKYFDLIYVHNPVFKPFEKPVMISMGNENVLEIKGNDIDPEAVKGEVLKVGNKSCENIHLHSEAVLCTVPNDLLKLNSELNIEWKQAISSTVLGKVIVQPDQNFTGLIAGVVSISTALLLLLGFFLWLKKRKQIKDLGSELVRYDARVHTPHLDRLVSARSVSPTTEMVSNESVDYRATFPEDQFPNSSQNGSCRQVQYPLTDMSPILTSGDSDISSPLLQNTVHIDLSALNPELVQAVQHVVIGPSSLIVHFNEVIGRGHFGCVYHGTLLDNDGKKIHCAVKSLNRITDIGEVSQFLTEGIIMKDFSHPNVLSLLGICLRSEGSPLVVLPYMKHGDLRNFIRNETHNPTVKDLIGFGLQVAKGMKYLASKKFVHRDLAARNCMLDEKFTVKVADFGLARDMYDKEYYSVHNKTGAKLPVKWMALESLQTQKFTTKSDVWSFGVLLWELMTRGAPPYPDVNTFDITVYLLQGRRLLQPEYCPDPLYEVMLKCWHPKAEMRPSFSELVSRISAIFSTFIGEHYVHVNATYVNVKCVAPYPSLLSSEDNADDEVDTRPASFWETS

[2] = biological target: T4, HGFR-His recombinant protein (human, UniProt P08581 25-932); test: ELISA, HGFR-His (2 µg/ml) on coated EpEX-Fc proteins (1 µg/ml) (FIG. 1H)
T4 construct: extracellular domain; also called HGFRECD-His recombinant protein; not shown: His tag
T4 sequence (P08581 25-932): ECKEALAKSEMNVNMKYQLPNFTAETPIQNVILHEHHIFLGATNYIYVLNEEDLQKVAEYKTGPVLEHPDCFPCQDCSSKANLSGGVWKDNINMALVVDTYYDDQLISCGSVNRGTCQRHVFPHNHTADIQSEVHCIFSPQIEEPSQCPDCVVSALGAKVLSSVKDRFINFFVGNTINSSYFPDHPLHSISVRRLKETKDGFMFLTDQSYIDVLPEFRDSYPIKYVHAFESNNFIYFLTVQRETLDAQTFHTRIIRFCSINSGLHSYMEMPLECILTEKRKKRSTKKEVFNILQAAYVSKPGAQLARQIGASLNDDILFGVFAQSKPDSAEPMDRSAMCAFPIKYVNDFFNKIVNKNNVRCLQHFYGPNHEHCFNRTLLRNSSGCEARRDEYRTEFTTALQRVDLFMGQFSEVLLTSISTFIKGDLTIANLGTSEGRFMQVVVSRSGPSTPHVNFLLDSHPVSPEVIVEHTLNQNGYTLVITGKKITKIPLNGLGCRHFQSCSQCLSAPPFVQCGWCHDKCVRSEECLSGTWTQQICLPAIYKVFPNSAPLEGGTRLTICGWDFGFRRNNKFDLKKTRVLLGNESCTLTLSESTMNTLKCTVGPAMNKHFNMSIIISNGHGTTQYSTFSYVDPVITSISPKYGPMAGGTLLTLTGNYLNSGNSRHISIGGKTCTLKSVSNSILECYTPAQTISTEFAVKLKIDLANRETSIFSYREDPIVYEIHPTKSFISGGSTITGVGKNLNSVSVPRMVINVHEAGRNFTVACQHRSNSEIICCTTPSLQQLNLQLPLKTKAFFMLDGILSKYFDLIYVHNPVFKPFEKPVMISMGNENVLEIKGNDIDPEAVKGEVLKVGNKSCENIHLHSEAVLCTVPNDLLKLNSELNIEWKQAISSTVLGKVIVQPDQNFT

[3] = biological target: T5, HGFRECD-c-Myc (extracellular domain of HGFR with c-Myc tag, expressed in HEK293T cells) (UniProt P08581 25-932); test: co-IP from transfected HEK293T cells (restated)
T5 construct: extracellular domain; also called HGFRECD-c-Myc-tag; not shown: c-Myc tag
T5 sequence (P08581 25-932): as above

[4] = biological target: T6, HGFR-Fc protein (human, UniProt P08581 25-932); test: ELISA, EpEX-His (2 µg/ml) on coated HGFR-Fc (1 µg/ml) (FIG. 6F)
T6 construct: not shown: Fc
T6 sequence (P08581 25-932): as above

[5] = biological target: B3; test: ELISA on coated EpEX-His (1 µg/ml) (FIG. 7A)
[6] = biological target: B6; test: Western blotting, flow cytometry and immunofluorescence on transfected HEK293T cells (title of the legend, FIG. 8A-8C)
[7] = biological target: T1, EpCAM wild-type (expressed in HEK293T …); test: immunofluorescence, flow cytometry and cellular ELISA on transfected HEK293T cells (FIG. 8E-8G)
[8] = biological target: B3; test: ELISA on coated EpEX-His (1 µg/ml) (title of the legend, FIG. 7A)
[9] = biological target: T5, HGFRECD-c-Myc (extracellular domain of …); test: co-IP from HEK293T cells overexpressing EpCAM-V5 and HGFRECD-c-Myc (FIG. 1B)
[10] = biological target: T5, HGFRECD-c-Myc (extracellular domain of …); test: co-IP from transfected HEK293T cells, Western blotting (FIG. 1F)
[11] = biological target: T5, HGFRECD-c-Myc (extracellular domain of …); test: co-IP with anti-c-Myc from transfected HEK293T cells, Western blotting (FIG. 1G)
[12] = biological target: T4, HGFR-His recombinant protein; test: ELISA, HGFR-His added to plates coated with mutant-Fc (1 µg/ml) (FIG. 1H)
[13] = tested on: HCT116 cells; test: Apoptosis assay, annexin V-FITC/PI double labeling, HCT116; format: cell-based, human; details: 100 μg/ml 24 h, FIG. 7B
Procedure: (§1) FIGS. 7A to 7G. EpAb2-6 binds EpEX and induces apoptosis by F(ab′)2 and inhibits regulated intramembrane proteolysis (RIP) activation and HGFR signaling. (FIG. 7A) Binding affinity of IgG EpAb2-6 (mouse) and F(ab′)2 to EpEX-His (1 μg/ml) coated overnight was checked using ELISA (OD450). (FIG. 7B) HCT116 cells were treated with 100 μg/ml control IgG, Fc, or F(ab′)2 of EpAb2-6 for 24 h. The apoptotic and necrotic cells were quantified by fluorescein annexin V-FITC/PI double labeling. (FIG. 7C) HCT116 and HT29 cells were treated with 10 μg/ml control IgG, MT201, humanized EpAb2-6 (hEpAb2-6) or mouse hybridoma EbAb2-6 (mEpAb2-6) for 24 h. The apoptotic and necrotic cells were quantified by fluorescein annexin V-FITC/PI double labeling. (FIG. 7D) HCT116 cells were treated with 10 μg/ml control IgG, MT201, hEpAb2-6 or mEpAb2-6 for 16 h, followed by treatment with EpEX-His (50 nM) for 15 min. Levels of phosphorylated HGFR, AKT, and ERK, and (FIG. 7E) RIP proteins ADAM17 and presenilin 2 were examined by Western blotting. Anti-EpCAM antibody and crizotinib coordinately induces apoptosis in colon cancer cells. (FIG. 7F) HCT116 and HT29 cells were treated with 10 μg/ml NMIgG or EpAb2-6 and 4 μM HGFR inhibitor crizotinib for 24 h. The apoptotic and necrotic cells were quantified by fluorescein annexin V-FITC/PI double labeling. (FIG. 7G) HCT116 and HT29 cells were treated with 10 μg/ml NMIgG or EpAb2-6 and 10 μM HGFR inhibitor crizotinib. Cell invasion was assessed by a Transwell assay with matrigel after 24 h.
Cells were seeded and treated with 10 μg/ml mAb or inhibitor for 6 h; an unrelated mouse myeloma immunoglobulin used at appropriate dilution served as the IgG2a (Invitrogen #02-6200) isotype control. Apoptotic cells were detected using Annexin V-FITC and PI, and were analyzed using a flow cytometer (BD Immmunocytometry Systems). Early apoptosis was measured with the Annexin V-FITC Apoptosis Detection kit II (BD Pharmingen). Late apoptotic nuclei were detected with propidium iodide (PI) staining.

[14] = biological target: T2, EpEX-His; test: ELISA binding to coated EpEX-His; details: EpEX-His 1 μg/ml coated; ELISA OD450; FIG. 7A
Procedure: as §1, with “(FIG. 7G) HCT116 and HT29 cells were treated with 10 μg/ml NMIgG or EpAb2-6 and 10 μM HGFR inhibitor crizotinib.” left out

Question: Does B1 bind [1]?
Answer: binds

Question: Does B2 bind [2]?
Answer: binds

Question: Does B3 bind [3]?
Answer: binds

Question: Does B3 bind [4]?
Answer: binds

Question: Does B4 bind [5]?
Answer: binds

Question: Does B5 bind [6]?
Answer: binds

Question: Does B5 bind [7]?
Answer: binds

Question: Does B5 bind [8]?
Answer: binds

Question: Does B6 bind [9]?
Answer: binds

Question: Does B7 bind [10]?
Answer: no binding

Question: Does B8 bind [11]?
Answer: no binding

Question: Does B9 bind [12]?
Answer: no binding (tested: 2 µg/ml)

Question: With B10 as the molecule, how does the apoptosis [13] read?
Answer: induce apoptosis in colon cancer cells

Question: And the “binding to EpEX” value [14]?
Answer: bind to EpEX
